Measurements: publication PMC10653821

Target: H. pylori-bullfrog hybrid ferritin nanoparticle (bullfrog (Rana catesbeiana) | Helicobacter pylori)
Assay: SEC

“H. pylori-bullfrog hybrid ferritin nanoparticle” showed a stoichiometry N of 24.
